Laboratory results: PMC4670726, “Systematic discovery of linear binding motifs targeting an ancient protein interaction surface on MAP kinases” (Molecular Systems Biology, 2015)
Values belong to the binder of their own block, whether it stands above or below them. Ends that are not written are not given here.

Legend:
[1] = molecular target: T1, ERK2 (as used in the fluorescence polarization titrations) (human, UniProt P28482 1-360); experiment: fluorescence polarisation; competition: 50 nM N-terminally labeled reporter peptide mixed with MAPK at ~60–80% complex formation, increasing amounts of unlabeled synthetic test peptide added; 384-well plates, triplicates; Ki from a competition binding equation; conditions: both partners purified
T1 construct: ERK2; the FP methods say only 'MAPKs'
T1 sequence (P28482 whole entry): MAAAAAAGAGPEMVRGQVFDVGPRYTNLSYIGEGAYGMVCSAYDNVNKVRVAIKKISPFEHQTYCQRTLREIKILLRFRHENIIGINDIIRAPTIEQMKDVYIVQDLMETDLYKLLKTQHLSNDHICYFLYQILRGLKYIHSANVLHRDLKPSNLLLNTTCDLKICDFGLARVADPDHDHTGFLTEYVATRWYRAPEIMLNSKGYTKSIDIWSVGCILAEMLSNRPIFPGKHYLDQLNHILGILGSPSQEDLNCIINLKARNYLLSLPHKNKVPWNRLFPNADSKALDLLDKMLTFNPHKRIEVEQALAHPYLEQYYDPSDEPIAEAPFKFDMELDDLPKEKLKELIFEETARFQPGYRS

[2] = molecular target: T2, p38α (as used in the fluorescence polarization titrations) (human, UniProt Q16539 1-360); experiment: as above; conditions: both partners purified
T2 construct: p38α; the FP methods say only 'MAPKs'
T2 sequence (Q16539 whole entry): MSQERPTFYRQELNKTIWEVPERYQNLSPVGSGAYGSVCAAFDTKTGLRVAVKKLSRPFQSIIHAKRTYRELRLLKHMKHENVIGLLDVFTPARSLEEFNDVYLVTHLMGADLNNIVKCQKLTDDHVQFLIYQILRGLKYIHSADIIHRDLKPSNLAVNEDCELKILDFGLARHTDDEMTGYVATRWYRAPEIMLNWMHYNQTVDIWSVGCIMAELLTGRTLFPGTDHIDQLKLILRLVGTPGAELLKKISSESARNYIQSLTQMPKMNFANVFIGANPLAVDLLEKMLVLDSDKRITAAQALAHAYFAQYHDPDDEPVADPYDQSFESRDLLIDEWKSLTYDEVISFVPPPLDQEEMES

binding result [1]: binds
B1: pepRSK1, labeled reporter peptide (peptide)
peptide: PQLKPIESSILAQRRVRKLPSTTL
modifications: also: N-terminal label: carboxyfluorescein or carboxytetramethylrhodamine
notes: docking peptide of RSK1; source: synthetic peptide

binding result [2]: binds
B2: pepMK2, labeled reporter peptide (peptide)
peptide: IKIKKIEDASNPLLLKRRKK
modifications: also: N-terminally labeled with carboxyfluorescein or carboxytetramethylrhodamine
notes: docking peptide of MK2; source: synthetic peptide

binding result [2]: binds
B3: pepMEF2A, labeled reporter peptide (peptide)
peptide: SRKPDLRVVIPPS
modifications: also: N-terminally labeled with carboxyfluorescein or carboxytetramethylrhodamine
notes: docking peptide of MEF2A; source: synthetic peptide
